# Reference: US20060029995A1, “Novel class of metacaspases” (Vlaams Interuniversitair Instituut Voor Biotechnologie VZW, priority 2003, published 2006)
# *: point of attachment. AMC = Cc1cc(=O)oc2cc(N*)ccc12; Boc = CC(C)(C)OC(=O)*
# T1: Atmc9 (Arabidopsis thaliana, UniProt Q9FYE1)
# T1 construct: it indeed consists of amino acids 184 to 325 (calculated mass 15427 Da); made in house; host or cells: E. coli BL21(DE3), pDEST17, Ni-NTA purified
# T1 sequence (Q9FYE1 1-183 limits assumed): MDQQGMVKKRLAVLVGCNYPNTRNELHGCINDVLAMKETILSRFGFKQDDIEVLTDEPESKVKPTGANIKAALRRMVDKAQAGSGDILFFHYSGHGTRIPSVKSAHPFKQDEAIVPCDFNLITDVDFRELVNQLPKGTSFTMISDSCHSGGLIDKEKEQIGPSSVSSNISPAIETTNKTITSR
# T1 sequence (Q9FYE1 184-325 limits assumed): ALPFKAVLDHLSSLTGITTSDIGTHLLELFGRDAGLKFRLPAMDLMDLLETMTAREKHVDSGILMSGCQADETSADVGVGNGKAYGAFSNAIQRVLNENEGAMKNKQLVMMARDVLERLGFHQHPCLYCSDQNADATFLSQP
# T2: metacaspase 3 (Arabidopsis thaliana, UniProt Q9FMG1)
# T2 construct: made in house; host or cells: bacterial production, pDEST17 (E. coli by the general method)
# T2 sequence (Q9FMG1 1-362 R151K/L157V/V158I/Q177E): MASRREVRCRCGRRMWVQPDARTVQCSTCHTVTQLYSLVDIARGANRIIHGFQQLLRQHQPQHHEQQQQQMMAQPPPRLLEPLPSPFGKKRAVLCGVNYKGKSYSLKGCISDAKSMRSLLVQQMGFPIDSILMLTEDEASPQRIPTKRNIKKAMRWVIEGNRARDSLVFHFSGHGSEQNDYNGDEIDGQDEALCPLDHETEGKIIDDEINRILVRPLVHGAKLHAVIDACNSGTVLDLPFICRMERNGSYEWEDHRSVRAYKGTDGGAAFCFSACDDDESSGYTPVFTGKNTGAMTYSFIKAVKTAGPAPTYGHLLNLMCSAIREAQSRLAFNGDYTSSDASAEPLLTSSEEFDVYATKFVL
# T3: benzyloxycarbonyl-Val-Ala-Asp-aminomethylcoumarin
# T3 chain: VAD
# T4: acetyl-Asp-Glu-Val-Asp-aminomethylcoumarin
# T4 chain: DEVD
# T5: H-Ala-Phe-Lys-7-amido-4-methylcoumarin
# T5 chain: AFK
# T6: t-butyloxycarbonyl-Gly-Lys-Arg-7-amido-4-methylcoumarin
# T6 chain: GKR
# T7: t-butyloxycarbonyl-Gly-Arg-Arg-7-amido-4-methylcoumarin
# T7 chain: GRR
# T8: benzyloxycarbonyl-Phe-Arg-AMC
# T8 chain: FR
# T9: Z-YVAD-cmk
# T9 chain: YVAD
# T10: Z-VAD-fmk
# T10 chain: VAD
# T11: Soybean trypsin inhibitor, P01070
# T11 chain: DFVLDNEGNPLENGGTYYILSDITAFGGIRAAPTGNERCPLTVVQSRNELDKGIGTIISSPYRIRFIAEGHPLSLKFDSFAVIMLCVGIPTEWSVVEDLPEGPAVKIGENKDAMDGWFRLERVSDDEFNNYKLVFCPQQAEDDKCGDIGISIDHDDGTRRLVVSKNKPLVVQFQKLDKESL
# T12: Z-FK-2,4,6-trimethylbenzoyloxymethyl ketone
# T12 chain: FK
# T13: Z-DEVD-cmk
# T13 chain: DEVD
# Legend:
# Atmc9 = biological target: T1, Atmc9; assay: kcat/Km of artificial substrates of Atmc9; assay type: biochemical; settings: summary of Table 1
# Procedure: The activity assay buffer used was composed of 50 mM MES pH 5.3, 10% (w/v) sucrose, 0.1% (w/v) 3-[(3-cholamidopropyl)dimethylammonio]-1-propanesulfonate [CHAPS], 10 mM DTT.
# Release of free AMC was determined in a time course using a FLUOstar Optima fluorescence plate reader (BMB Lab Technologies, Offenburg, Del.). After total hydrolysis of the substrates, kcatlKm was calculated using the following formula: kcat/Km=kobsIEt, where kobs is determined as the decrease per second of the natural logarithm of substrate left, and Et is the concentration of enzyme active sites in the reaction.
# metacaspase 3 = biological target: T2, metacaspase 3; assay: Cleavage of fluorescent artificial substrates by purified metacaspase 3; assay type: biochemical; settings: assay buffers of pHs ranging from 4.5 to 9.0 (MES 50 mM)
# Excerpt: (§1) For generation of the prodomain deletion mutant of Arabidopsis thaliana metacaspase 3 (MC3ΔN), residues 1 to 91 were replaced by a methionine residue by PCR, using 5′-[…]-3′ (SEQ ID NO:43) as the forward primer and 5′-[…]-3′ (SEQ ID NO:17) as the reverse primer. 5′ extensions used for Gateway™ (Invitrogen) cloning were 5′-[…]-3′ (SEQ ID NO:44) for forward primers and 5′-[…]-3′ (SEQ ID NO:45) for reverse primers. For bacterial production, the cDNA's were cloned into the bacterial expression vector pDEST17™ (Invitrogen), resulting in the amino-terminal translational addition of the following HIS6 tag-containing sequence: […] (SEQ ID NO:37).
# (§2) Activity of purified metacaspase 3 was tested with different fluorescent substrates in assay buffers of pHs ranging from 4.5 to 9.0 (MES 50 mM). The substrates tested were: Ac-DEVD-AMC, Z-VAD-AMC, Boc-GRR-AMC, Boc-GKR-AMC, Z-FR-AMC and H-AFK-AMC. Only Z-FR-AMC was cut by metacaspase 3.
# [1] = biological target: T3, benzyloxycarbonyl-Val-Ala-Asp-aminomethy …
# [2] = biological target: T4, acetyl-Asp-Glu-Val-Asp-aminomethylcoumar …
# [3] = biological target: T5, H-Ala-Phe-Lys-7-amido-4-methylcoumarin
# [4] = biological target: T6, t-butyloxycarbonyl-Gly-Lys-Arg-7-amido-4 …
# [5] = biological target: T7, t-butyloxycarbonyl-Gly-Arg-Arg-7-amido-4 …
# [6] = biological target: T8, benzyloxycarbonyl-Phe-Arg-AMC
# [7] = Activity of full length metacaspase 3 and prodomain deletion mutants in function of the pH, Z-FR-AMC as substrate; assay type: biochemical; design: unit not given here
# Excerpt: as §1, §2
# A comparison was made between full length (MC3) and a prodomain deletion mutant of wild-type metacaspase 3 (MC3AN) or the C/A mutant (MC3ANC/A). Activity was significant only after addition of the kosmotrope sodium citrate (Na citr., 1 M), in absence of this agent the proteins were not active.
# Table 3: Activit y of full length metacaspase 3, and the prodomain deletion mutant in function of the pH, using Z-FR-AMC as substrate. “No enz” was incubated at pH8, without addition of metacaspase.
# [8] = Proteolytic activity of Atmc9 against Boc-GKR-AMC at different pH; assay type: biochemical
# Procedure: Assays were performed in 150 μl with 400 ng of purified Atmc9 and 50 μM substrate in an optimized metacaspase 9 assay buffer (50 mM MES pH 5.3, 10% (w/v) sucrose, 0.1% (w/v) 3-[(3-cholamidopropyl)dimethylammonio]-1-propanesulfonate [CHAPS], 10 mM DTT). Time-dependent release of free amido-4-methylcoumarin (AMC) was measured on a Cytofluor 4000 fluorescence microplate reader (PerSeptive Biosystems, Farmingham, Md., USA).
# To further characterize Atmc9 biochemically, the purified protein and its cysteine mutant were tested for their ability to cleave the synthetic fluorogenic oligopeptide substrate t-butyloxycarbonyl-GKR-7-amido-4-methylcoumarin (Boc-GKR-AMC) at different pH.
# Z-YVAD-cmk = biological target: T9, Z-YVAD-cmk
# Z-VAD-fmk = biological target: T10, Z-VAD-fmk
# [9] = biological target: T11, Soybean trypsin inhibitor, P01070
# [10] = biological target: T12, Z-FK-2,4,6-trimethylbenzoyloxymethyl …
# Z-DEVD-cmk = biological target: T13, Z-DEVD-cmk
molecule,measurement,setting,value
t-butyloxycarbonyl-Gly-Lys-Arg-7-amido-4-methylcoumarin (Boc-Gly-Lys-Arg-{AMC}; SMILES Cc1cc(=O)oc2cc(NC(=O)[C@H](CCCNC(=N)N)NC(=O)[C@H](CCCCN)NC(=O)CNC(=O)OC(C)(C)C)ccc12) [Boc-GKR-AMC],quality as substrate for Atmc9,Atmc9,somewhat less good substrate
same,cleavage by metacaspase 3,metacaspase 3,No activity was detected
N-terminally HIS6-tagged Atmc3 (bacterially produced) (protein) MSYYHHHHHHLESTSLYKKAGSTMASRREVRCRCGRRMWVQPDARTVQCSTCHTVTQLYSLVDIARGANRIIHGFQQLLRQHQPQHHEQQQQQMMAQPPPRLLEPLPSPFGKKRAVLCGVNYKGKSYSLKGCISDAKSMRSLLVQQMGFPIDSILMLTEDEASPQRIPTKRNIRKAMRWLVEGNRARDSLVFHFSGHGSQQNDYNGDEIDGQDEALCPLDHETEGKIIDDEINRILVRPLVHGAKLHAVIDACNSGTVLDLPFICRMERNGSYEWEDHRSVRAYKGTDGGAAFCFSACDDDESSGYTPVFTGKNTGAMTYSFIKAVKTAGPAPTYGHLLNLMCSAIREAQSRLAFNGDYTSSDASAEPLLTSSEEFDVYATKFVL,"cleavage of fluorescent substrate, pH 4.5 to 9.0",[1],No activity was detected using the other substrates.
same,"cleavage of fluorescent substrate, pH 4.5 to 9.0",[2],No activity was detected using the other substrates.
same,"cleavage of fluorescent substrate, pH 4.5 to 9.0",[3],No activity was detected using the other substrates.
same,"cleavage of fluorescent substrate, pH 4.5 to 9.0",[4],No activity was detected using the other substrates.
same,"cleavage of fluorescent substrate, pH 4.5 to 9.0",[5],No activity was detected using the other substrates.
same,"cleavage of fluorescent substrate, pH 4.5 to 9.0",[6],Only Z-FR-AMC was cut by metacaspase 3.
same,Activity,"[7]; pH 4.5, with sodium citrate (1 M)",13.37
same,Activity,"[7]; pH 5, with sodium citrate (1 M)",8.05
same,Activity,"[7]; pH 5.5, with sodium citrate (1 M)",5.48
same,Activity,"[7]; pH 6, with sodium citrate (1 M)",5.64
same,Activity,"[7]; pH 6.5, with sodium citrate (1 M)",29.58
same,Activity,"[7]; pH 7, with sodium citrate (1 M)",36.63
same,Activity,"[7]; pH 7.5, with sodium citrate (1 M)",41.61
same,Activity,"[7]; pH 8, with sodium citrate (1 M)",26.11
same,Activity,"[7]; pH 8.5, with sodium citrate (1 M)",17.93
same,Activity,"[7]; pH 9, with sodium citrate (1 M)",−2.57
"Atmc9: purified recombinant HIS-tagged Arabidopsis thaliana metacaspase 9, type II (protein, listed as Arabidopsis thaliana, N-terminal His6 tag with linker; Atmc9, purified recombinant HIS-tagged Arabidopsis thaliana metacaspase 9, type II) HHHHHLESTSLYKKAGSTMDQQGMVKKRLAVLVGCNYPNTRNELHGCINDVLAMKETILSRFGFKQDDIEVLTDEPESKVKPTGANIKAALRRMVDKAQAGSGDILFFHYSGHGTRIPSVKSAHPFKQDEAIVPCDFNLITDVDFRELVNQLPKGTSFTMISDSCHSGGLIDKEKEQIGPSSVSSNISPAIETTNKTITSRALPFKAVLDHLSSLTGITTSDIGTHLLELFGRDAGLKFRLPAMDLMDLLETMTAREKHVDSGILMSGCQADETSADVGVGNGKAYGAFSNAIQRVLNENEGAMKNKQLVMMARDVLERLGFHQHPCLYCSDQNADATFLSQP",activity at the physiological pH of the cytoplasm,[8]; pH 7.0-7.5,completely abolished
same,GKR-ase activity,"[8]; purified protein, Boc-GKR-AMC at different pH, FIG. 7",clearly has GKR-ase activity
N-terminally HIS6-tagged Atmc9 (bacterially produced) (protein) MSYYHHHHHHLESTSLYKKAGSTMDQQGMVKKRLAVLVGCNYPNTRNELHGCINDVLAMKETILSRFGFKQDDIEVLTDEPESKVKPTGANIKAALRRMVDKAQAGSGDILFFHYSGHGTRIPSVKSAHPFKQDEAIVPCDFNLITDVDFRELVNQLPKGTSFTMISDSCHSGGLIDKEKEQIGPSSVSSNISPAIETTNKTITSRALPFKAVLDHLSSLTGITTSDIGTHLLELFGRDAGLKFRLPAMDLMDLLETMTAREKHVDSGILMSGCQADETSADVGVGNGKAYGAFSNAIQRVLNENEGAMKNKQLVMMARDVLERLGFHQHPCLYCSDQNADATFLSQP,"Activity (%) of Atmc9 with Boc-GKR-AMC as substrate, reagent at 100 µM",Z-YVAD-cmk,100%
same,kcat/Km,[3],0.75 mM⁻¹ s⁻¹
same,kcat/Km,[4],1.9 mM⁻¹ s⁻¹
same,"Activity (%) of Atmc9 with Boc-GKR-AMC as substrate, reagent at 100 µM",Z-VAD-fmk,87%
same,"Activity (%) of Atmc9 with Boc-GKR-AMC as substrate, reagent at 100 µg/ml",[9],73%
same,kcat/Km,[5],2.9 mM⁻¹ s⁻¹
same,kcat/Km,[6],2.9 mM⁻¹ s⁻¹
same,"Activity (%) of Atmc9 with Boc-GKR-AMC as substrate, reagent at 1 µM",[10],33%
same,"Activity (%) of Atmc9 with Boc-GKR-AMC as substrate, reagent at 100 µM",Z-DEVD-cmk,94%
